Usually EC50 stands for the concentration needed to bring the measured effect to its halfway point.

This experiment deals with T1, human GITR on cells (human, UniProt Q9Y5U5 26-241).
T1 chain: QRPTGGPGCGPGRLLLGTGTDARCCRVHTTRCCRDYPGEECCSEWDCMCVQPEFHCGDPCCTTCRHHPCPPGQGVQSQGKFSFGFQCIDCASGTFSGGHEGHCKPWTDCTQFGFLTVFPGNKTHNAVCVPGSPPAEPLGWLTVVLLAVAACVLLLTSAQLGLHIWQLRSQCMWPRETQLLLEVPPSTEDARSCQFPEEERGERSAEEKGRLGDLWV
The experiment is described as follows: FACS binding to activated human CD4 T cells. Background: Flow cytometry measures light scatter and fluorescence of single cells or particles in a stream.

B1: anti-GITR-IgG2 (antibody)
heavy: QVQLVESGGGVVQPGRSLRLSCAASGFTFSSYGMHWVRQAPGKGLEWVAVIWYEGSNKYYADSVKGRFTISRDNSKNTLYLQMNSLRAEDTAVYYCARGGSMVRGDYYYGMDVWGQGTTVTVSSASTKGPSVFPLAPCSRSTSESTAALGCLVKDYFPEPVTVSWNSGALTSGVHTFPAVLQSSGLYSLSSVVTVPSSNFGTQTYTCNVDHKPSNTKVDKTVERKCCVECPPCPAPPVAGPSVFLFPPKPKDTLMISRTPEVTCVVVDVSHEDPEVQFNWYVDGVEVHNAKTKPREEQFNSTFRVVSVLTVVHQDWLNGKEYKCKVSNKGLPAPIEKTISKTKGQPREPQVYTLPPSREEMTKNQVSLTCLVKGFYPSDIAVEWESNGQPENNYKTTPPMLDSDGSFFLYSKLTVDKSRWQQGNVFSCSVMHEALHNHYTQKSLSLSPGK
light: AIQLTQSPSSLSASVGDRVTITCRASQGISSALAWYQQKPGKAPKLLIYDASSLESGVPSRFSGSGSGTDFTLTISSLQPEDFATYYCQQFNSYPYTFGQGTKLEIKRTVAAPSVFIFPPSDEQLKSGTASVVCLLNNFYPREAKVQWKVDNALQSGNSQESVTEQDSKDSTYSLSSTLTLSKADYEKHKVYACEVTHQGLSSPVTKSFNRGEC
The molecule B1 showed an EC50 of 0.277 nM.

B2: anti-GITR-IgG2-IgG1.1 (antibody)
heavy: QVQLVESGGGVVQPGRSLRLSCAASGFTFSSYGMHWVRQAPGKGLEWVAVIWYEGSNKYYADSVKGRFTISRDNSKNTLYLQMNSLRAEDTAVYYCARGGSMVRGDYYYGMDVWGQGTTVTVSSASTKGPSVFPLAPCSRSTSESTAALGCLVKDYFPEPVTVSWNSGALTSGVHTFPAVLQSSGLYSLSSVVTVPSSNFGTQTYTCNVDHKPSNTKVDKTVERKCCVECPPCPAPPVAGPSVFLFPPKPKDTLMISRTPEVTCVVVDVSHEDPEVKFNWYVDGVEVHNAKTKPREEQYNSTYRVVSVLTVLHQDWLNGKEYKCKVSNKALPSSIEKTISKAKGQPREPQVYTLPPSREEMTKNQVSLTCLVKGFYPSDIAVEWESNGQPENNYKTTPPVLDSDGSFFLYSKLTVDKSRWQQGNVFSCSVMHEALHNHYTQKSLSLSPG
light: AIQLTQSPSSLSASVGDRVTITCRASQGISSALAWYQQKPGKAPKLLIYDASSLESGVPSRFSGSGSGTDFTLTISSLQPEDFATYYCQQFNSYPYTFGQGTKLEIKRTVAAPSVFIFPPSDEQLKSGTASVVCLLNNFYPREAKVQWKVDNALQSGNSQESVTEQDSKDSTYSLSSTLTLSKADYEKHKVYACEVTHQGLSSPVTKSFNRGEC
For the molecule B2, the EC50 stood at 0.163 nM.

The values above are taken from patent US20200299400A1 (published 2020).
